Values of other authors, collected in article PMC4225561.

Biological target: Myo4p 27-residue fragment (Saccharomyces cerevisiae) (UniProt P32492)
Assay: pull-down

UniProt P32492, sequence (P32492 528-554): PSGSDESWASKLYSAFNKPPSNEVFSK

Kd: 1 µM
Substance: She4p (from UniProt P51534)
